# From the DeepSol protein solubility set
# Experiment: soluble on expression in E. coli; label from the status in PepcDB or PDB records
row,Sequence,soluble on expression in E. coli
1,MGHHHHHHSHMRLLKSELGSFITDYFQNQLLAKGLFFVEEKIKLCEGENRIEVLAEVWDHFFTETLPTLQAIFYPVQSVHEPTGPSESYLQLEELVKQVVSPFLGISGDRSFSGPTYTLARRHSRVRPKVTVLNYASPITAVSRPLNEMVLTPLTEQEGEAYLEKCGSVRRHTVANAHSDIQLLAMATMMHSGLGEEASSENKCLLLPPSFPPPHRQCSSEPNITDNPDGLEEGARGSQEGSELNCASLS,not soluble
2,MGHHHHHHSHMSCTVYAKTQQAKFLTWQFDGEYRGDDYTATLTLGNPDLIGESVIMVAHFLQSLTHRLVLGGELVYHRRPGEEGAILTLAGKYSAVHWVATLNVGSGGAHASYYHRANEQVQVGVEFEANTRLQDTTFSFGYHLTLPQANMVFRGLVDSNWCVGAVLEKKMPPLPVTLALGAFLNHWRNRFHCGFSITVG,not soluble
3,MGHHHHHHSHMSGGEVVCSGWLRKSPPEKKLKRYAWKRRWFVLRSGRLTGDPDVLEYYKNDHAKKPIRIIDLNLCQQVDAGLTFNKKEFENSYIFDINTIDRIFYLVADSEEEMNKWVRCICDICGFNPTEEDPVK,not soluble
4,MGHHHHHHSHMSNTDASGEKRVTGTSERREQIIQRLRQQGSVQVNDLSALYGVSTVTIRNDLAFLEKQGIAVRAYGGALICDSTTPSVEPSVEDKSALNTAMKRSVAKAAVELIQPGHRVILDSGTTTFEIARLMRKYTDVIAMTNGMNVANALLEAEGVELLMTGGHLRRQSQSFYGDQAEQSLQNYHFDMLFLGVDAIDLERGVSTHNEDEARLSRRMCEVAERIIVVTDSSKFNRSSLHKIIDTQRIDMIIVDEGIPADSLEGLRKAGVEVILVGDHASSL,soluble
5,MGHHHHHHSHMSQHGQSCLSLAGTIDCSVPDILLKSGVIGLAQWLTPVIPALWETEAGGSLEVRSSRPAWPTWRNPISTKNTKISQTWWRMPVVLATWEAEAGESVNLGGRGCSELRRCRCTPAWATRAKLHLRKNKNKNNGVTKT,not soluble
6,MGHHHHHHSHMSSYHCAMNNENARLLTFQTWPLTFLSPTDLAKAGFYYIGPGDRVACFACGGKLSNWEPKDNAMSEHLRHFPKCPFIENQLQDTSRYTVSNLSMQTHAARFKTFFNW,not soluble
7,MGHHHHHHSHMTWKGGGGWMAAVTHGPGITWGSLLPSAVRQGEQKCKNTDVYFSKLGGGGVPPDSFQRADCGGPTVYPTPARESLSFGTPGFPELRGKLILHVSIAVVVFLFGPGRAGEGPSRLQEASRVSWTLLCRPQAALQTPVRWDDFRRSQPGTARPSAWEPVQGAVS,soluble
8,MGHHHHHHSHMVNVKGSTKKSNLDRFLHCITPLVPPQSLPKTEIRTLNRLWHPWERQKVEFFRLSDLWDCYDEWSAYGASVPIHVTNGESLVQYYVPYLSAIQIFTSHSSLIRLREESEDGECEGRDPFSDSGSDESVSEEGLENNTLLHPSDRLGYLYLQYFERSAPYTRVPLMDKINELAQRYPGLMSLRSVDLSPASWMSVAWYPIYHIPMGRTIKDLSTCFLTYHTLSSSFQDMEPEENGGDKERVRREGEDITLLPFGMATYKMQGDVWLSQDHDDQERLASLYSVADSWLKQLRVQHHDFNYFCNMSMTHRG,soluble
9,MGHHHHHHSHMWSSREIEDLGLTFAIAIDKGKETNTEKELKEEGGSYPKKDNITLTYQFVNEKAAGAGTSGGGGSGQGAQKAYINISETGDSLQQIGSEVALRRDREVFSPHLKVVVMSEDVLHTFPIDEMLDQFFRDNEIRLSCLVLSAKGEARDALQLKENGEIPAFRLIGLGENEHKVSRILPPMTLAKLIGKLHSGSSFLLQNVVAANGAVKYSGAAVINGKSKKMIGTLNEYETEGITWIRGEGKGGVVKSHDKKSQQTLAYDINKIKSRIQPIVKGKDISFHVDIESEGDLVENWNTKEALDTQFIDRLETTIENEVKKIVGQVLKKIQHDYKADVAGFDESFRLTYPHLWKRVKNNWDDTFSKADITYSVNVTITHFGTVKTQ,soluble
10,MGHHHHHHSHVRSPQNQYPAELMRRFELYFQGPSSNKPRVIREVRADSVGKLVTVRGIVTRVSEVKPKMVVATYTCDQCGAETYQPIQSPTFMPLIMCPSQECQTNRSGGRLYLQTRGSRFIKFQEMKMQEHSDQVPVGNIPRSITVLVEGENTRIAQPGDHVSVTGIFLPILRTGFRQVVQGLLSETYLEAHRIVKMNKSEDDESGAGELTREELRQIAEEDFYEKLAASIAPEIYG,soluble
11,MGHIIDISKWNGDINWSIAKQHIDFIIARVQDGSNYVDPLYKGYVQAMKQHGIPFGNYAFCRFVSIADAKKEAQDFWNRGDKSATVWVADVEVKTMNDMRAGTQAFIDELYRLGAKKVGLYVGHHMYTPFGMANVKSDFVWIPRYGGNKPAYPCDIWQYTETGNVPGIGKCDLNSLIGNKSLSWFTESATQESVQAPTQNIIQSGAFSPYETPDVTGALTSLKMTAKFILKPDGLTYFISDPTSDAQLNAMKEYLDRKGWWYEVK,not soluble
12,MGIGNENKGFITASADALINWVRTGSLWPVTTGLACCAVEMMHAGAARYDLDRFGIVFRPSPRQSDVLIVAGTLCNKMAPALRQVYDQMPDPKWVISMGSCANGGGYYHYSYSVVRGCDRIVPVDIYVPGCPPTAEALVYGIIQLQNKIIRKDTIARK,not soluble
13,MGKEMASEYELGQVRLGEFQLYTNGEELYRKLFEDINDAEKYIYIHFYIVGKDEISQEFLQLLEKKASSGVEVKLSVDRIGGYKLKKKVISRLKENGVKFTFSKKPKLKNVFYSLHQRNHRRIVTIDGKVSYVGGFNIGKEYLGQNPKFGPWRDYHVRIHGEGAADMERKFAEDWKEDTGEKMPIHESIPTLGNVKYQYLFSNGKGLWEKYGALLKKAKKSLIIATPYFVPSKEMVKELKAALNRGVNVKILVPFKSDAILLKQAAYPYLKDMLHAGAEIYQYRNGFFHGKVTIIDGEIVDIGTANFDNRSFYLNCESNCIIYDKTVVDEVWSRLQVDFHKSKRFSEEDFEKISRWDWFLARIANVLASYL,not soluble
14,MGKEYHVAVVGATGAVGTRMIELLAETSLPIASVRLLASKRSAGQEIQFKGQPLIVEELVPESFEGIDLALFSAGGSISEKFAPEAVKRGAVVVDNTSHFRMAKDVPLVVPEVNPEALKNHQGIIANPNCSTIQMMVALEPIRQAFGLERIIVSTYQAVSGAGIRAINELKEQAEDFLEGKPVSEWSAEILPAGSDEKHYPIAFNALPQIDVFSEAGYTYEEWKMMNETKKIMGDNKLKVVATCVRIPVISGHSESVYIEVKQADASVSAIQELMAQAPGVILQDEPSEQLYPQALNSVNQKETFVGRIRQDVDVKNGFHLWIVSDNLLKGAAWNSVQIAETLHEMNLLRVPEND,not soluble
15,MGKKYKNIVLLKGLEVINDYHFRMVKSLLSNDLKLNLKMREEYDKIQIADLMEEKFRGDAGLGKLIKIFEDIPTLEDLAETLKKEKLKVKGPALSRKRKKEVDATSPAPSTSSTVKTEGAEATPGAQKRKKSTKEKAGPKGSKVSEEQTQPPSPAGAGMSTAMGRSPSPKTSLSAPPNTSSTENPKTVAKCQVTPRRNVLQKRPVIVKVLSTTKPFEYETPEMEKKIMFHATVATQTQFFHVKVLNTSLKEKFNGKKIIIISDYLEYDSLLEVNEESTVSEAGPNQTFEVPNKIINRAKETLKIDILHKQASGNIVYGVFMLHKKTVNQKTTIYEIQDDRGKMDVVGTGQCHNIPCEEGDKLQLFCFRLRKKNQMSKLISEMHSFIQIKKKTNPRNNDPKSMKLPQEQSQLPNPSEASTTFPESHLRTPQMPPTTPSSSFFTKKSEDTISKMNDFMRMQILKEGSHFPGPFMTSIGPAESHPHTPQMPPSTPSSSFLTTLKPRLKTEPEEVSIEDSAQSDLKEVMVLNATESFVYEPKEQKKMFHATVATENEVFRVKVFNIDLKEKFTPKKIIAIANYVCRNGFLEVYPFTLVADVNADRNMEIPKGLIRSASVTPKINQLCSQTKGSFVNGVFEVHKKNVRGEFTYYEIQDNTGKMEVVVHGRLTTINCEEGDKLKLTCFELAPKSGNTGELRSVIHSHIKVIKTRKNKKDILNPDSSMETSPDFFF,soluble
16,MGKLYVFDHPLIQHKITYIRDKNTGTKDFRELVDEVASLMAFEITRDLPLKDIEIETPVSKATTKVIAGKKLGLIPILRAGLGMVDGILKLIPAAKVGHVGLYRDPKTLQPVEYYVKLPTDVEERDFIVLDPMLATGGSAAEAINSLKKRGAKQIKLMCIVAAPEGVKVVQEEHPDVDIYVAALDEKLNDHGYVVPGLGDAGDRLFGTK,not soluble
